# Results as given in patent US20230203202A1 (DRAGONFLY THERAPEUTICS, published 2023).
# T1: human 5T4 on the cell surface (human, UniProt Q13641 32-420)
# T1 sequence (looked up): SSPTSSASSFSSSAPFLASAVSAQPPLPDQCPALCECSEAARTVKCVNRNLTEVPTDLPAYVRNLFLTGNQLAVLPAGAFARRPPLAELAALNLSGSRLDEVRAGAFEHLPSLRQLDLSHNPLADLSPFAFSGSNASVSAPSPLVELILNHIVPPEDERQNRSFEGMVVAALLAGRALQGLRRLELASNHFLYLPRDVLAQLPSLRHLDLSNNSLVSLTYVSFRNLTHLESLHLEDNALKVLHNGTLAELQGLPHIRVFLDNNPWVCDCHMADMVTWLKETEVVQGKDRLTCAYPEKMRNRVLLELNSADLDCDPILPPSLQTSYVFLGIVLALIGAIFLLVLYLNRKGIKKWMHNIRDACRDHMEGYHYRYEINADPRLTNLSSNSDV
# T2: human NKG2D on CD8+ T cells (human, UniProt P26718 1-216)
# T2 sequence (looked up): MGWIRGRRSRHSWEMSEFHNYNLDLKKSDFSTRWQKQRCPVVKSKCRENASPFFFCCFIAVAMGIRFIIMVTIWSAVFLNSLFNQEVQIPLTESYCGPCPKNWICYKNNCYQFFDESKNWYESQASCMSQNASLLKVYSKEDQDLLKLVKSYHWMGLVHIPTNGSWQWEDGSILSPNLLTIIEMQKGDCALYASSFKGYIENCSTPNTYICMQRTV
# T3: human 5T4 (SPR and epitope mapping, construct not stated) (human, UniProt Q13641 32-355, limits assumed)
# T3 construct: also called h5T4
# T3 sequence (looked up): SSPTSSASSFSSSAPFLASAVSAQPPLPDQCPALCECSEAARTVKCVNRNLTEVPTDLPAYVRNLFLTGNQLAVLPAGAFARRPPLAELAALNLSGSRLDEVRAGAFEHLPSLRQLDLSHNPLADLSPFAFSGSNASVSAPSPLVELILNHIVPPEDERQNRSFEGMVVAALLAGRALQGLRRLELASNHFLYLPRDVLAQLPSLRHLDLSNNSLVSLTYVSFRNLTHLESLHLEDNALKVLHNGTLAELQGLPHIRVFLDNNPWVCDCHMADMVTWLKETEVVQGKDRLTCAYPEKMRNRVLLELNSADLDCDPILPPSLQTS
# Legend:
# [1] = target: T1, human 5T4 on the cell surface; test: cell-based or functional assay
# [2] = target: T1, human 5T4 on the cell surface; test: cell-based or functional assay; remark: listed apart in the source
# [3] = target: T2, human NKG2D on CD8+ T cells; test: cell-based or functional assay
# [4] = target: T1, human 5T4 on the cell surface; test: flow cytometry on FaDu cells (22,000 5T4 per cell)
# [5] = target: T1, human 5T4 on the cell surface; test: flow cytometry on H292 cells (12,000 5T4 per cell)
# [6] = target: T1, human 5T4 on the cell surface; test: flow cytometry on 786-O cells (18,000 5T4 per cell)
# [7] = target: T1, human 5T4 on the cell surface; test: flow cytometry on HCC4006 cells (53,000 5T4 per cell)
# [8] = target: T3, human 5T4 (SPR and epitope mapping, …); test: SPR, h5T4 binding; control sample, HST pH 6, 7 days 4 °C
# [9] = target: T3, human 5T4 (SPR and epitope mapping, …); test: SPR, h5T4 binding; sample oxidised in PBS 0.02% H2O2, 24 hrs RT
# [10] = target: T3, human 5T4 (SPR and epitope mapping, …); test: SPR, Biacore 8K, 37 °C, TriNKET captured on anti-hFc chip, pH 6.0
# Protocol: Briefly, SPR was performed using a Biacore 8K instrument at physiological temperature of 37° C. Briefly, human Fc specific antibodies were covalently immobilized at a density of about 8000-10000 resonance units (RU) on carboxy methyl dextran matrix of a CM5 biosensor chip to create an anti-hFc IgG chip. Samples were injected on the anti-hFc IgG chip at a flow rate of 10 μL/min for 60 seconds. Protein was serially diluted (300 nM-0.14 nM) in three-fold dilutions with running buffer and injected at a flow rate of 30 μl/min over the captured test articles. Association was monitored for 240-300 seconds, and dissociation was monitored for 300-900 seconds. Surfaces were regenerated between cycles with three pulses of 10 mM glycine-HCl (pH 1.7) injected for 20 seconds at 100 μL/min.
# [11] = target: T1, human 5T4 on the cell surface; test: cell binding assay on 5T4-expressing tumor cells (cell line not given)
# [12] = target: T1, human 5T4 on the cell surface; test: flow cytometry on H292 cells (11,000 5T4/cell), fold over background
# Protocol: (§1) The KYSE-30 and H292 human cancer cell lines, derived from esophageal squamous cell carcinoma and non-small cell lung carcinoma, respectively, were used. […] After incubation, binding patterns of the TriNKET® and mAb to 5T4+ cells were detected using a fluorophore conjugated anti-human IgG secondary antibody. Cells were analyzed by flow cytometry and fold MFI over secondary-only controls reported.
# [13] = target: T1, human 5T4 on the cell surface; test: flow cytometry on KYSE-30 cells (61,000 5T4/cell), fold over background
# Protocol: as §1
# [14] = target: T3, human 5T4 (SPR and epitope mapping, …); test: SPR, h5T4 binding; sample stressed in Tris pH 9, 7 days 40 °C; heterogeneous binding, approximate value
# [15] = target: T1, human 5T4 on the cell surface; test: flow cytometry on primary lung cancer-associated fibroblasts (Donor #377913A1), fold over background
binder,measurement,setting,value
"AB1310/AB1783-TriNKET® (bispecific antibody, human IgG1, kappa, also called AB1310-TriNKET®; AB1783 10F10 F3′ LH H(T62S) CHO opt) DIQLTQSPSSLSASVGDRVTITCRASQSVTTSNYNYMHWFQQKPGKAPKLLIKFASNLESGVPSRFSGSGSGTDFTLTISSLQPEDFATYYCQHSWEIPWTFGCGTKVEIKGGGGSGGGGSGGGGSGGGGSEVQLVESGGGLVKPGGSLRLSCAASRFTFSDFGMHWVRQAPGKCLEWVSYISSGSSTIYYADSVKGRFTISRDNAKNSLYLQMNSLRAEDTAVYYCASSQSYYRGTLDYWGQGTTVTVSSASDKTHTCPPCPAPELLGGPSVFLFPPKPKDTLMISRTPEVTCVVVDVSHEDPEVKFNWYVDGVEVHNAKTKPREEQYNSTYRVVSVLTVLHQDWLNGKEYKCKVSNKALPAPIEKTISKAKGQPREPRVYTLPPCRDELTKNQVSLTCLVKGFYPSDIAVEWESNGQPENNYKTTPPVLVSDGSFTLYSKLTVDKSRWQQGNVFSCSVMHEALHNHYTQKSLSLSPG heavy: EVQLVESGGGLVKPGGSLRLSCAASGFTFSSYSMNWVRQAPGKGLEWVSSISSSSSYIYYADSVKGRFTISRDNAKNSLYLQMNSLRAEDTAVYYCARGAPIGAAAGWFDPWGQGTLVTVSSASTKGPSVFPLAPSSKSTSGGTAALGCLVKDYFPEPVTVSWNSGALTSGVHTFPAVLQSSGLYSLSSVVTVPSSSLGTQTYICNVNHKPSNTKVDKKVEPKSCDKTHTCPPCPAPELLGGPSVFLFPPKPKDTLMISRTPEVTCVVVDVSHEDPEVKFNWYVDGVEVHNAKTKPREEQYNSTYRVVSVLTVLHQDWLNGKEYKCKVSNKALPAPIEKTISKAKGQPREPQVCTLPPSRDELTENQVSLTCLVKGFYPSDIAVEWESNGQPENNYKTTPPVLDSDGSFFLYSWLTVDKSRWQQGNVFSCSVMHEALHNHYTQKSLSLSPG light: DIQMTQSPSSVSASVGDRVTITCRASQGISSWLAWYQQKPGKAPKLLIYAASSLQSGVPSRFSGSGSGTDFTLTISSLQPEDFATYYCQQGVSFPRTFGGGTKVEIKRTVAAPSVFIFPPSDEQLKSGTASVVCLLNNFYPREAKVQWKVDNALQSGNSQESVTEQDSKDSTYSLSSTLTLSKADYEKHKVYACEVTHQGLSSPVTKSFNRGEC","ADCP of KYSE-30 cells by M0 macrophages, EC50",[1],0.089 nM
same,"ADCP of NCI-H292 cells by M0 macrophages, EC50",[1],0.15 nM
same,"NK cell-mediated lysis of primary CAFs, EC50 (first column pair)",[2],0.081 nM
same,"NK cell-mediated lysis of primary CAFs, EC50 (second column pair)",[2],0.19 nM
same,"CD8+ T-cell lysis of BT-474 cells (Incucyte, 72 h), EC50",[3],0.66 nM
same,"CD8+ T-cell lysis of FaDu cells (Incucyte, 72 h), EC50",[3],0.59 nM
same,EC50,[4],7.1 nM
same,EC50,[5],1.5 nM
same,EC50,[6],2.7 nM
same,EC50,[7],7.6 nM
same,Kd,[8],7.8 nM
same,koff,[8],0.00091 s⁻¹
same,kon,[8],120000 M⁻¹ s⁻¹
same,Kd,[9],7 nM
same,koff,[9],0.00086 s⁻¹
same,kon,[9],120000 M⁻¹ s⁻¹
same,Kd,[10],9.4 nM
same,koff,[10],0.0012 s⁻¹
same,kon,[10],120000 M⁻¹ s⁻¹
same,EC50,[11],5.33 nM
same,Max Fold Over Background (FOB),[11],85 fold over background
same,EC50 (read off the curve),[12],~3 nM
same,EC50 (read off the curve),[13],~2 nM
same,Kd,[14],~15.1 nM
same,EC50 (read off the curve),[15],~4 nM
